The target of assay [1] is T1, recombinant human M-CSF (human, UniProt P09603 33-190, limits assumed).
T1 construct: The active form is described as a disulfide bonded dimer; also called M-SCF; CSF-1
T1 sequence: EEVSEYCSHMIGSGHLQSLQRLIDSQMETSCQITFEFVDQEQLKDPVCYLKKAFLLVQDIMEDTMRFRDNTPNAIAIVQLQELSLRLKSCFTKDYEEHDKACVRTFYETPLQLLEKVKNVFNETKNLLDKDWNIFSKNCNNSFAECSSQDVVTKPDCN
The assay can be described thus: SPR (Biacore), M-CSF amine-coupled on CM5 chip, antibody or Fab flowed, 25 C, 1:1 model. The protocol:
Specifically, M-CSF was immobilized onto CM5 biosensor chip via amine coupling. 0.05 μg/ml M-CSF in 10mM Na Acetate pH 4.0 was injected at 1 μl/min for 5 minutes to achieve RL=6-12 RU. Test antibody (or Fab fragment) were flowed over the modified biosensor surface at varying concentrations. Test antibodies were diluted in 0.01 M HEPES pH 7.4, 0.15 M NaCL, 3 mM EDTA, 0.005% Surfactant P20 (HBS-EP) and all experiments were done at 25° C. Kinetic and affinity constants were determined using Biaevaluation software (Biacore) with a 1:1 interaction model/global fit.

The target in assay [2] is T1, recombinant human M-CSF. The assay can be described thus: SPR (Biacore), M-CSF amine-coupled on CM5 chip, antibody flowed 100 nM to 1.5 nM, 25 C, 1:1 model, n = 21. The method, then:
(§1) To determine the relative differences in the binding affinity of intact antibodies by Biacore analysis, M-CSF was immobilized onto CMS biosensor chip via amine coupling. 0.05 μg/ml M-CSF in 10 mM Na-Acetate pH 4.0 was injected at 1 μl/min for 5 minutes to achieve RL=6-12 RU. Test antibody or Fab fragments were flowed over the modified biosensor surface at varying concentrations ranging from 100 nM to 1.5 nM in 2-fold dilutions. Test antibodies were diluted in 0.01 M HEPES pH 7.4, 0.15 M NaCL, 3 mM EDTA, 0.005% Surfactant P20 (HBS-EP) and all experiments were done at 25° C. Each concentration point and buffer blanks were run in triplicate, and data was collected over 3 minutes of association and 8 minutes of dissociation. Kinetic and affinity constants were determined using Biaevaluation software with a 1:1 interaction model/global fit.
A general note: In SPR one partner is held on a chip, and binding of the other changes the refractive index at the surface.

Assay [3] has as its target T1, recombinant human M-CSF. The assay can be described thus: cell-based or functional assay.
Assay [4] deals with T1, recombinant human M-CSF. The assay can be described thus: SPR (Biacore), antibody captured on anti-mouse Fc chip, M-CSF flowed, 25 C, 1:1 model. The protocol: Binding properties of the aforementioned antibodies were analyzed using Biacore analyses. […] The aforementioned antibodies were then captured on the anti-mouse Fc/CM5 biosensor chip at 1.5 μg/ml for 3 min at 2 μl/min. MCSF was flowed over the modified biosensor surface at varying concentrations (Rmax ˜15). Test antibodies and antigen were diluted in 0.01 M HEPES pH 7.4, 0.15 M NaCL, 3 mM EDTA, 0.005% Surfactant P20 (HBS-EP). All experiments were performed at 25° C. Kinetic and affinity constants were determined using Biaevaluation software (Biacore) with a 1:1 interaction model/global fit.

Assay [5] addresses T1, recombinant human M-CSF. The assay can be described thus: SPR (Biacore), M-CSF amine-coupled on CM5 chip, antibody flowed, 25 C, 1:1 model, n = 21. The protocol:
as §1

For orientation: Kd means the equilibrium constant for the complex coming apart. As usually defined, the koff is the rate constant with which the complex falls apart. Usually kon stands for the second-order rate constant of association.

B1: murine monoclonal antibody RX1 (antibody, V domains shown)
VH: DVQLQESGPGLVKPSQSLSLTCTVTDYSITSDYAWNWIRQFPGNKLEWMGYISYSGSTSYNPSLKSRISITRDTSKNQFFLQLNSVTTEDTATYYCASFDYAHAMDYWGQGTSVTVSS
VL: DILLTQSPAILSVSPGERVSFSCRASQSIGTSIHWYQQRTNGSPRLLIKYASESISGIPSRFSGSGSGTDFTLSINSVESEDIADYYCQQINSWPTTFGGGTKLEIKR
notes: Intact murine antibody; The hybridoma or commercial RX1 and the recombinant murine RX1 (rRX1, rmRX1) are treated as one molecule; also called Murine RX1; rRX1(mouse)
As for B1, the Kd worked out at 1 nM in the assay with recombinant human M-CSF [1], 0.7 nM with recombinant human M-CSF [2], 0.16 nM in the assay with recombinant human M-CSF [4] and 0.7 nM with recombinant human M-CSF [5]. Besides, the koff turned out to be 0.000235 s⁻¹ with recombinant human M-CSF [1], 0.000156 s⁻¹ with recombinant human M-CSF [2], 0.00027 s⁻¹ in the assay with recombinant human M-CSF [4] and 0.000156 s⁻¹ with recombinant human M-CSF [5]. The kon in the assay with recombinant human M-CSF [1] came out at 234000 M⁻¹ s⁻¹; in the assay with recombinant human M-CSF [2], 223000 M⁻¹ s⁻¹; with recombinant human M-CSF [4], 1.64e+06 M⁻¹ s⁻¹; with recombinant human M-CSF [5] it was 223000 M⁻¹ s⁻¹. Further, the “EC50 (M-CSF neutralization)” value with recombinant human M-CSF [3] worked out at 2 ng/mL.

The values are drawn from patent US20170152311A1 (published 2017).
